Publication PMC5413884, “Enzyme discovery beyond homology: a unique hydroxynitrile lyase in the Bet v1 superfamily” (Scientific Reports, 2017)

Experiments:
[1] = target: T1, DtHNL1 (Davallia tyermanii, UniProt A0A1C9V3S9); experiment: X-ray crystal structure, soaking; assay type: binding; details: active site
T1 construct: gene HNL1; dimer; about 20 kDa

[2] = target: T1, DtHNL1; experiment: benzaldehyde formation at […] nm, Michaelis-Menten fit; assay type: biochemical; details: cleavage direction; 50 mM sodium citrate-phosphate pH 5.0, 25 °C
[3] = target: Davallia tyermannii hydroxynitrile lyase 1 (DtHNL1) (Davallia tyermannii); experiment: crystal structure; SeMet-SAD structure at 1.85 Å and native crystals soaked with 4-hydroxybenzaldehyde, benzoic acid or (R)-mandelonitrile; sitting drop vapor diffusion, 16 °C, protein in 10 mM Tris-HCl pH 8.0
[4] = test system: O=Cc1ccccc1; experiment: GC of (R)-mandelonitrile formed, initial rates, Michaelis-Menten fit; assay type: biochemical, Davallia tyermanii; details: apparent, synthesis direction, biphasic MTBE/buffer 2:1, 2 M HCN, pH 4.0, 10 °C
[5] = test system: N#C[C@H](O)c1ccccc1; experiment: purified protein; assay type: biochemical, Davallia tyermanii; details: cleavage direction, 50 mM sodium citrate-phosphate pH 5.0, 25 °C
[6] = crystal soaked with (R)-mandelonitrile

With `N#C[C@H](O)c1ccccc1` [(R)-mandelonitrile, (2R)-2-hydroxy-2-phenylacetonitrile] the “X-ray crystal structure, soaking” value [1, 6] was 5E4B (DtHNL1-MXN) and the Km [2] was 300 ± 30 µM.
`O=Cc1ccccc1` [benzaldehyde] was tested, and the “X-ray crystal structure, soaking” value [1, 6] was “Bound benzaldehyde (cyan, right) and (R)-mandelonitrile (yellow, left) as observed in a crystal”.
For `O=C(O)c1ccccc1` [benzoic acid], the “X-ray crystal structure, soaking” value [1] was 5E4D (DtHNL1–BEZ).
“Davallia tyermannii hydroxynitrile lyase 1 (DtHNL1) (enzyme)” gave a stoichiometry N [3] of 2.
DtHNL1 (Davallia tyermanii) showed a Km [4] of 14000 ± 2000 µM and a kcat [4] of 70 ± 7 s⁻¹.
DtHNL2 (Davallia tyermanii) gave a Km [5] of 450 ± 50 µM and a kcat [5] of 156 ± 3 s⁻¹.
For DtHNL3 (Davallia tyermanii), the Km [5] was 750 ± 80 µM and the kcat [5] was 356 ± 8 s⁻¹.
DtHNL4 (Davallia tyermanii) showed a Km [5] of 630 ± 60 µM and a kcat [5] of 272 ± 5 s⁻¹.
